The results in this text go back to patent US20050232926A1, “Antibodies specific for cancer associated antigen SM5-1 and uses thereof” (Oncomax Acquisition Corp., priority 2003, published 2005).

A word on the Kd: it is the concentration at which binding is half-saturated.

Assay [1] concerns human hepatocellular carcinoma cell line QYC. Nature of the assay: Complement-dependent cytotoxicity (CDC), LDH release. The class given is cell-based. Conditions: 5% normal human sera, 3-4 h, FIG. 8. An excerpt:
Antigen recognized by anti-SM5-1 is highly expressed on the surface of human hepatocellular carcinoma cell line QYC. With human complement in the culture fluid, the target cells bound with chimeric antibodies will be lysed by so-called complement dependent cell mediated cytotoxicity (CDC). When there is an over dose of complement (provided by fresh normal human sera), in a certain range, the degree of lysis is related to antibody concentration. Degree of lysis can be determined by detecting lactate dehydrogenase (LDH) released by the lysed cells.
Cell line for bioactivity determination is QYC, which is without any pathogen. […]
QYC cells in the logarithmic growth stage were taken and counted. […]
50 ul supernatant was transferred from each well to corresponding wells in a second 96-well plate, and 50 ul well-mixed LDH test kit reagent was added into the well of the second plate. […] OD was measured with 490 nm as detecting light wave length, and 630 nm as reference wave length.
The results were analyzed with specific analysis software Select2.2 to make auto analysis and calculate standard curve line: horizontal axis stands for the concentration of the standard product and samples, vertical axis stands for optical adsorption, recovery equation as 4-parameter equation, resulting in a “s” curve line. Half effective dosage (ED50) of the standard product and samples were calculated. […]
(In general: Release of lactate dehydrogenase indicates damage to the cell membrane.)

For assay [2] the test system is unchanged. Nature of the assay: Therapeutic effect in QYC-bearing nude mice. The assay is classed as in vivo. Conditions: 4 mg/kg/week tail vein, after 6 weeks, FIG. 9. The method, then: Chimeric and humanized anti-SM5-1 monoclonal antibodies, and humanized and chimeric anti-CD3 antibodies were tested for their therapeutic effects in QYC bearing nude mice.
Forty female nude mice were inoculated s.c with QYC. After seven weeks, tumor masses reached 0.5 cm in diameter. These mice were randomly divided into 5 groups: 8 mice for PBS group; 8 mice for non-related antibody, chimeric anti-human CD3 mAb, 4 mg/kg; 8 mice for humanized anti-human CD3 mAb, 4 mg/kg; 8 mice for anti-human SM5-1 chimeric mAb, 4 mg/kg; 8 mice for anti-human SM5-1 humanized mAb, 4 mg/kg.
Four mAbs were diluted into final concentration 0.4 mg/ml with PBS. Mice were tail vein injected at 4 mg/kg/week through tail vein, with the control injected equal volume of PBS. According to body weight of nude mice, injection volume was about 250 ul for each nude mouse.
After 6 weeks, size of the tumor mass was measured in each mouse and statistical analyzed. […] These antibodies may function via ADCC and/or CDC.

Another assay deals with SM5-1 antigen. Nature of the assay: Affinity determination with BIAcore. The assay is classed as binding, human. A general note: In SPR one partner is held on a chip, and binding of the other changes the refractive index at the surface.

B1: humanized anti-SM5-1 antibody (ReSM5-1) (antibody, V domains shown)
VH: QVQLVQSGGGVVQPGRSLRLSCKASGYTFTSYVMHWVRQAPGKGLEWIGYIVPYNDGTKYNEKFKGRFTISSDKSKSTAFLQMDSLRPEDTAVYYCARGSRYDWYLDYWGQGTPVTVSS
VL: NIMMTQSPSSLSASVGDRVTITCKSSQSVLYSSNQKNYLAWYQQTPGKAPKLLIYWASTRESGVPSRFSGSGSGTDYTFTISSLQPEDIATYYCHQYFSSYTFGQGTKLQITR
As for B1, the “anti-neoplasm effect via CDC” value in assay [1] is “induced the apoptosis and inhibited the growth of tumor cells through the CDC pathway”. In assay [2], the “size of the tumor mass” value is listed as “effective in controlling the size of the tumor mass”. On SM5-1 antigen, this molecule showed a Kd of 9.31 nM.

B2: chSM5-1: mouse-human chimeric antibody with mSM5-1 variable regions (SEQ ID NO:3, 4) and human constant regions (antibody, V domains shown)
VH: EVQLQQSGPELVKPGASVKMSCKASGYTFTSYVMHWVKQKPGQGLDWIGYIVPYNDGTKYNEKFKGKATLTSDKSSSTAYMELSRLTSEDSAVYYCVYGSRYDWYLDVWGAGTTVTVSS
VL: NIMMTQSPSSLAVSAGEKVTMSCKSSQSVLYSSNQKNYLAWYQQKPGQSPKLLIYWASTRESGVPDRFTGSGSGTDFTLTISSVQAEDLAVYYCHQYFSSYTFGGGTKLEIKR
modifications: human constant regions; Mus Musculus
Take B2: the “anti-neoplasm effect via CDC” value in assay [1] is “induced the apoptosis and inhibited the growth of tumor cells through the CDC pathway”. The “size of the tumor mass” value in assay [2] is “effective in controlling the size of the tumor mass”. Besides, binding on SM5-1 antigen was characterised by a dissociation constant (Kd) of 3.78 nM.
